From patent US20250163122A1, “COMPOSITIONS AND METHODS FOR TREATING AIRWAY MUCUS DYSFUNCTION” (BOARD OF REGENTS, THE UNIVERSITY OF TEXAS SYSTEM, priority 2022, published 2025)
Bridges are numbered along the chain shown (N, C = ends). [ ]: non-standard residue; d: D form. S5 = C=CCCC[C@](C)(N)C(=O)O

Tests used:
[1] = system: mouse airway epithelial cells; assay: Mucin secretion without secretagogue after peptide aerosol in mice with mucous metaplasia; format: in vivo
Method: To investigate whether SP9 could have therapeutic benefit in vivo, SP9 conjugated to CPPs and fluorophores was introduced into mouse airways using a microsprayer inserted into the distal trachea under direct visualization with a laryngoscope. […] All subsequent studies of airway mucin secretion were therefore performed in the distal axial bronchus. […] This effect was not observed with the injection of buffer alone.
The peptide solution was injected into the airway under pressure to generate a droplet aerosol. A high concentration of peptides was used in these experiments in part because the solution is expected to be in contact with the airway epithelium only briefly and to mostly end up in the alveolar region.

[2] = system: fractional secretion of intracellular mucin in mouse airways; assay: Stimulated mucin secretion in mice (IL-13, then methacholine); format: in vivo; details: pretreatment, aerosol 200 μM 30 min before secretagogue, IL-13 mice
Method: Mucin secretion and airway mucus occlusion in mice. The efficiency of stimulated mucin secretion and the extent of mucus accumulation in the airway lumen of Syt2 mutant mice were measured as described previously (Jaramillo et al, 2019). Briefly, to increase intracellular mucin content (i.e., induce mucous metaplasia), 3 μg IL-13 (BioLegend) in 40 μl PBS was instilled every other day×3 into the posterior pharynx of mice under isoflurane anesthesia to be aspirated during inhalation. […] Fractional mucin secretion was calculated as the percentage […] mucin content of mice of the same genotype treated only with IL-13. To measure intracellular airway epithelial mucin content, lungs were inflated via the trachea with 10% neutral buffered formalin to 20 cm water pressure for 24 h at 4° C., then embedded in paraffin. […] Images were acquired using an upright microscope (Olympus BX 60) with a ×40 NA 0.75 objective lens, and intracellular mucin was measured around the circumferential section of the axial bronchus using ImagePro (Media Cybernetics). Images were analyzed by investigators blinded to mouse genotype and treatment, and data are presented as the epithelial mucin volume density, signifying the measured volume of mucin overlying a unit area of epithelial baseline lamina. […]

[3] = system: Muc5ac secretion from HAECs; assay: Mucin (Muc5ac) secretion assay in HAECs; format: cell-based, human; details: for reduction of stimulated (IL-13+ATP) Muc5ac secretion / effect on stimulated secretion: 10 μM peptide, 30 min pre-incubation, metaplastic conditions; for reduction of stimulated Muc5ac secretion: metaplastic HAECs
Method: Cell culture. […] Growth medium was replaced every two days. […] The apical medium was replaced after 48 h.
Mucin secretion assay in HAECs. […] In brief, for the 24 h peptide treatment, 20 μl of DMEM+/−100 μM peptides was added to the apical surface 24 h before stimulation. On the day of the assay, cells were washed 5 times with 100 μl DMEM for 1 h for each wash on the apical side. Apical supernatants were collected after every wash ([…]), then 100 μl of DMEM+/−100 μM peptides was added to the apical surface and HAECs incubated for 15 min before collecting the supernatant (baseline wash). HAECs were then incubated for an additional 15 min with 100 μl DMEM+/−100 μM ATP (Sigma) before collection of supernatants (experimental washes). Following sample collection, cells were lysed in 100 μl of lysis buffer (lysate) containing 50 mM Tris-HCl pH 7.2, 1 mM EDTA, 1 mM EGTA, 1% Triton-X (Sigma), protease inhibitor cOmplete mini EDTA-free and phosphatase inhibitor PhosSTOP (Roche, Germany). The protocol was adapted for 30 min peptide treatment as follows. After wash 5, 100 μl of DMEM+/−10 μM or 100 μM of peptides was added to the apical surface and HAECs incubated for 30 min (baseline wash). HAECs were then incubated for 30 min with 100 μl DMEM+/−100 μM ATP to collect experimental washes.
All samples were diluted 1:10 in PBS (washes and cell lysates) and 50 μl of each sample were vacuum-aspirated onto a 0.45 μm pore nitrocellulose membrane using the Bio-Dot® MicrofiltrationApparatus (Bio-Rad). […] All steps were performed at room temperature. Fluorescent signals were acquired using the Odyssey® Fc Imaging System (Li-Cor®, USA) and quantified using ImageJ (v.2.0.0; NIH, USA). Equal volumes of samples were loaded on the gels for control and peptide treatments. […] Stimulated secretion is therefore normalized to baseline secretion within individual filters to account for filter to filter heterogeneities.

[4] = system: airway lumenal mucus in mouse lung; assay: Airway lumenal mucus accumulation in mice; format: in vivo; details: pretreatment, aerosol 200 μM, IL-13 then methacholine
Method: To measure airway lumenal mucus content, mucous metaplasia was induced as above, then mucin secretion and bronchoconstriction were induced by exposure for 10 min to an aerosol of 150 mM methacholine. Lungs were harvested and fixed by immersion for 48 h at 4° C. to avoid displacement of lumenal mucus and using methanol-based Carnoy's solution (methacarn) for fixation to minimize changes in mucus volume. A single transverse 5 μm section was taken through the axial bronchus of the left lung between lateral branches 1 and 2 and stained with PAFS as above to evaluate intracellular mucin to ensure secretion had been stimulated. […]
To measure the efficiency of stimulated mucin secretion and the extent of mucus accumulation in the airway lumen of WT mice treated with peptides, the same procedures as those used for analysis of Syt2 mutant mice were followed, except that both outcomes were measured in the same mouse by fixation of the left lung by inflation with formalin to measure mucin secretion and fixation of the right lung by immersion in methacarn to measure mucus accumulation. […] In addition, a MicroSprayer Aerosolizer (Penn-Century) was used for peptide delivery to the airways, secretion was measured in the left axial bronchus at a site 3 mm distal to the site used in the Syt2 mutant mice, and mucus accumulation was measured in the right caudal lobe.

[5] = target: Syt2 (UniProt P29101 1-422, limits assumed); assay: cell-based or functional assay
[6] = 100 μM peptide for 24 h before stimulation

Chain of Syt2 (P29101 whole entry): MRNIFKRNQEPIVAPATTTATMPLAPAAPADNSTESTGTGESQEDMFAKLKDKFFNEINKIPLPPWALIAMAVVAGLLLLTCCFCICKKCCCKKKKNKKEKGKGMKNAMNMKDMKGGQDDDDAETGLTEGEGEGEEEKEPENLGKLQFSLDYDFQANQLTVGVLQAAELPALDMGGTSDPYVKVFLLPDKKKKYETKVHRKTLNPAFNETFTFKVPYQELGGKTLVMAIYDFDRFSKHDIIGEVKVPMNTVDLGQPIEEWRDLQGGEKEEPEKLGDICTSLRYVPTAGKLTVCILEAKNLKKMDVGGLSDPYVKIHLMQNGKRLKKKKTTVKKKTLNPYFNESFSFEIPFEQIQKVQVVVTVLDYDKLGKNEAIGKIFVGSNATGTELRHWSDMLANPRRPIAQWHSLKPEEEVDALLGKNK

H2N-RQIKIWFQNRRMKWKKEE(S5)KDA(S5)IR(S5)LVM(S5)DEQ-(C/Cy3Mal)-amide [PEN-SP9-Cy3]
mucin secretion of Cy3-labeled cells without a secretagogue (side-effect) ([1]; mouse, in vivo): did not show this problem
reduction of fractional secretion of intracellular mucin stimulated by methacholine [2]: 82.3%
reduction of stimulated (IL-13+ATP) Muc5ac secretion [3]: 48%
reduction of stimulated Muc5ac secretion [3, 6]: 73%
reduction of airway lumenal mucus accumulation in the right lung [4]: 33.1%

H2N-RQIKIWFQNRRMKWKKEESKDAGIRTLVMLDEQ-(C/Cy3Mal)-amide (H-RQIKIWFQNRRMKWKKEESKDAGIRTLVMLDEQ-{C(Cy3 maleimide)-NH2}) [PEN-P9-Cy3, non-stapled control peptide with penetratin and Cy3, reference compound]
effect on fractional secretion of intracellular mucin stimulated by methacholine [2]: no effect
effect on stimulated secretion [3]: no effect
effect on airway lumenal mucus accumulation in the right lung [4]: no effect

Ac-EE(S5)KDA(S5)IR(S5)LVM(S5)DEQ-(C/Cy3Mal)-amide (Ac-EE[S5]KDA[S5]IR[S5]LVM[S5]DEQC-NH2; staple 10-14, 3-7; also: Cy3 maleimide on C-terminal Cys) [SP9-Cy3]
effect on stimulated secretion [3]: no effect
effect on ATP-stimulated secretion [3, 6]: no effect

H2N-GRKKRRQRRRPPQEE(S5)KDA(S5)IR(S5)LVM(S5)DEQ-(C/Cy3Mal)-amide (H-GRKKRRQRRRPPQEE[S5]KDA[S5]IR[S5]LVM[S5]DEQ-{C(Cy3 maleimide)-NH2}; staple 16-20, 23-27) [TAT-SP9-Cy3]
intracellular mucin content of cells that internalize the peptide ([1]; 300 μM aerosolized, left axial bronchus, IL-13 mouse, PAFS): low intracellular mucin content
mucin secretion after peptide aerosol without secretagogue ([1]; aerosolized 1 mM, left axial bronchus, IL-13 mice): extensive apocrine mucin secretion
mucin secretion of Cy3-labeled cells without a secretagogue (side-effect) ([1]; peptide introduced into airways of mice with mucous metaplasia): had secreted their mucin stores without stimulation
reduction of stimulated (IL-13+ATP) Muc5ac secretion [3]: 86%
reduction of stimulated Muc5ac secretion [3, 6]: 83%

H2N-GRKKRRQRRRPPQEESKDAGIRTLVMLDEQ-(C/Cy3Mal)-amide (H-GRKKRRQRRRPPQEESKDAGIRTLVMLDEQ-{C(Cy3 maleimide)-NH2}) [TAT-P9-Cy3, non-stapled control peptide with TAT and Cy3, reference compound]
effect on stimulated secretion [3]: no effect

B1: SP9 (peptide)
peptide: Ac-EE[S5]KDA[S5]IR[S5]LVM[S5]DEQC-NH2
modifications: staple 10-14, 3-7
SMILES: CC[C@H](C)[C@H](NC(=O)[C@]1(C)CCCC=CCCC[C@](C)(NC(=O)[C@H](CCC(=O)O)NC(=O)[C@H](CCC(=O)O)NC(C)=O)C(=O)N[C@@H](CCCCN)C(=O)N[C@@H](CC(=O)O)C(=O)N[C@@H](C)C(=O)N1)C(=O)N[C@@H](CCCNC(=N)N)C(=O)N[C@@]1(C)CCCC=CCCC[C@@](C)(C(=O)N[C@@H](CC(=O)O)C(=O)N[C@@H](CCC(=O)O)C(=O)N[C@@H](CCC(N)=O)C(=O)N[C@@H](CS)C(N)=O)NC(=O)[C@H](CCSC)NC(=O)[C@H](C(C)C)NC(=O)[C@H](CC(C)C)NC1=O
inhibition of Ca2+-independent fusion probability, single vesicle content mixing with airway epithelial SNAREs and Syt2 [5]: ≤ 40%
inhibition of Ca2+-triggered cumulative fusion probability, single vesicle content mixing with airway epithelial SNAREs and Syt2 [5]: ≤ 70%

B2: SP4 (peptide)
peptide: Ac-SKDA[S5]IRT[S5]VM[S5]DEQ[S5]EQL-NH2
modifications: staple 12-16, 5-9
SMILES: CC[C@H](C)[C@@H]1NC(=O)[C@@](C)(NC(=O)[C@H](C)NC(=O)[C@H](CC(=O)O)NC(=O)[C@H](CCCCN)NC(=O)[C@H](CO)NC(C)=O)CCCC=CCCC[C@@](C)(C(=O)N[C@H](C(=O)N[C@@H](CCSC)C(=O)N[C@@]2(C)CCCC=CCCC[C@@](C)(C(=O)N[C@@H](CCC(=O)O)C(=O)N[C@@H](CCC(N)=O)C(=O)N[C@@H](CC(C)C)C(N)=O)NC(=O)[C@H](CCC(N)=O)NC(=O)[C@H](CCC(=O)O)NC(=O)[C@H](CC(=O)O)NC2=O)C(C)C)NC(=O)[C@H]([C@@H](C)O)NC(=O)[C@H](CCCNC(=N)N)NC1=O
inhibition of Ca2+-independent fusion probability, single vesicle content mixing with airway epithelial SNAREs and Syt2 [5]: ≤ 40%
inhibition of Ca2+-triggered cumulative fusion probability, single vesicle content mixing with airway epithelial SNAREs and Syt2 [5]: ≤ 70%

B3: SP1 (peptide)
peptide: Ac-SKD[S5]GIR[S5]LVMLDE[S5]GEQ[S5]DR-NH2
modifications: staple 15-19, 4-8
SMILES: CC[C@H](C)[C@@H]1NC(=O)CNC(=O)[C@@](C)(NC(=O)[C@H](CC(=O)O)NC(=O)[C@H](CCCCN)NC(=O)[C@H](CO)NC(C)=O)CCCC=CCCC[C@@](C)(C(=O)N[C@@H](CC(C)C)C(=O)N[C@H](C(=O)N[C@@H](CCSC)C(=O)N[C@@H](CC(C)C)C(=O)N[C@@H](CC(=O)O)C(=O)N[C@@H](CCC(=O)O)C(=O)N[C@@]2(C)CCCC=CCCC[C@@](C)(C(=O)N[C@@H](CC(=O)O)C(=O)N[C@@H](CCCNC(=N)N)C(N)=O)NC(=O)[C@H](CCC(N)=O)NC(=O)[C@H](CCC(=O)O)NC(=O)CNC2=O)C(C)C)NC(=O)[C@H](CCCNC(=N)N)NC1=O
inhibition of Ca2+-independent fusion probability, single vesicle content mixing with airway epithelial SNAREs and Syt2 [5]: ≤ 40%
inhibition of Ca2+-triggered cumulative fusion probability, single vesicle content mixing with airway epithelial SNAREs and Syt2 [5]: ≤ 70%

B4: SP10 (peptide)
peptide: Ac-SKD[S5]GIR[S5]LV[S5]LDE[S5]GEQL-NH2
modifications: staple 11-15, 4-8
SMILES: CC[C@H](C)[C@@H]1NC(=O)CNC(=O)[C@@](C)(NC(=O)[C@H](CC(=O)O)NC(=O)[C@H](CCCCN)NC(=O)[C@H](CO)NC(C)=O)CCCC=CCCC[C@@](C)(C(=O)N[C@@H](CC(C)C)C(=O)N[C@H](C(=O)N[C@@]2(C)CCCC=CCCC[C@@](C)(C(=O)NCC(=O)N[C@@H](CCC(=O)O)C(=O)N[C@@H](CCC(N)=O)C(=O)N[C@@H](CC(C)C)C(N)=O)NC(=O)[C@H](CCC(=O)O)NC(=O)[C@H](CC(=O)O)NC(=O)[C@H](CC(C)C)NC2=O)C(C)C)NC(=O)[C@H](CCCNC(=N)N)NC1=O
inhibition of Ca2+-independent fusion probability, single vesicle content mixing with airway epithelial SNAREs and Syt2 [5]: ≤ 40%
inhibition of Ca2+-triggered cumulative fusion probability, single vesicle content mixing with airway epithelial SNAREs and Syt2 [5]: ≤ 70%
